Reference: patent publication US8975044B2, “Polynucleotides encoding for frizzled-binding agents and uses thereof” (OncoMed Pharmaceuticals, Inc., priority 2008, dated 2015)

B1: 44R24: anti-FZD5/8 IgG antibody, VH SEQ ID NO:85, VL SEQ ID NO:86; ATCC deposit no. PTA-10311 (antibody, V domains shown)
VH: EVQLVESGGGLVQPGGSLRLSCAASGFTFSSYYITWVRQAPGKGLEWVSTISYSSSNTYYADSVKGRFTISRDNSKNTLYLQMNSLRAEDTAVYYCARSIVFDYWGQGTLVTVSS
VL: DIELTQPPSVSVAPGQTARISCSGDALGNRYVYWYQQKPGQAPVLVIPSGIPERFSGSNSGNTATLTISGTQAEDEADYYCGSWDTRPYPKYVFGGGTKLTVLG
modifications: 44R24 VH; 44R24 VL
notes: ATCC deposit no; PTA-10311
B2: 18R5: human anti-FZD antibody; VH SEQ ID NO:10 (as 18R8), VL SEQ ID NO:14; binds FZD1, 2, 5, 7, 8 (antibody, V domains shown)
VH: EVQLVESGGGLVQPGGSLRLSCAASGFTFSHYTLSWVRQAPGKGLEWVSVISGDGSYTYYADSVKGRFTISSDNSKNTLYLQMNSLRAEDTAVYYCARNFIKYVFANWGQGTLVTVSS
VL: DIELTQPPSVSVAPGQTARISCSGDNIGSFYVHWYQQKPGQAPVLVIYDKSNRPSGIPERFSGSNSGNTATLTISGTQAEDEADYYCQSYANTLSLVFGGGTKLTVLG
modifications: 18R5/18R8 heavy chain variable region (VH); 18R5 light chain variable region (VL)
B3: 18R8: human anti-FZD antibody from phage display; VH SEQ ID NO:10, VL SEQ ID NO:12; binds FZD1, 2, 5, 7, 8 (antibody, V domains shown)
VH: B2 VH
VL: DIELTQPPSVSVAPGQTARISCSGDKLGKKYASWYQQKPGQAPVLVIYEKDNRPSGIPERFSGSNSGNTATLTISGTQAEDEADYYCSSFAGNSLEVFGGGTKLTVLG
modifications: 18R5/18R8 heavy chain variable region (VH); 18R8 light chain variable region (VL)

Columns and labels:
C28 tumor cells = assay: C28 colon tumor growth study; format: in vivo, Nod-Scid mice; conditions: 15 mg/kg intraperitoneally twice per week
Protocol: C28 tumor cells were injected sub-cutaneously in Nod-Scid mice. Tumors were allowed to grow until they had reached an average volume of 126 mm^3. Tumor bearing animals were groups were randomized into four groups (n=10 mice per group) and treated with either Control Ab (black squares), 18R8 (gray triangles), 44R24 (black open circles), or 18R5 (gray circles) (FIG. 58). Antibodies were dosed intraperitoneally at 15 mg/kg, twice per week. Tumor volumes are indicated.

FZD8 [1] = target: T1, FZD8 (Homo sapiens, UniProt Q9H461, F127V/G126N); assay: Epitope mapping by FACS on FZD8 Fri domain variants on HEK293 cells; format: binding; conditions: amino acids 126-127 mutated from FG to NV
T1 construct: N-terminus of the Fri domain of FZD8 in turn fused to the transmembrane domain and intracellular domain of CD4 protein; expressed in transfected cells; host or cells: HEK293
T1 sequence (Q9H461 28-158 G126N/F127V): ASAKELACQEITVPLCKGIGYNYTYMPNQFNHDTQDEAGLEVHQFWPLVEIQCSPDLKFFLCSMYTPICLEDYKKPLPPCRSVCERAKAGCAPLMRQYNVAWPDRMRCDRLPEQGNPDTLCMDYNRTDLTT
Protocol: To identify the FZD epitope recognized by the 18R8 IgG antibody, epitope mapping was performed. Flow cytometry analysis of cell surface expressed FZD was utilized to measure antibody binding. Mammalian expression plasmid vectors comprising a CMV promoter upstream of polynucleotides that encode an N-terminal signal sequence FLAG epitope tag fused to the N-terminus of the Fri domain of FZD8 in turn fused to the transmembrane domain and intracellular domain of CD4 protein were generated by standard recombinant technology. This expression construct allows expression of the FZD8 Fri domain on the cell surface, as well as expression of a FLAG epitope tag to monitor expression. Site-direct mutagenesis was then used to modify selected amino acids within the extracellular domain of FZD. HEK293 cells were co-transfected with expression vectors encoding the FZD and the transfection marker GFP. Forty-eight hours post-transfection, cells were collected in suspension and incubated on ice with anti-FZD antibody or control IgG to detect background antibody binding. The cells were washed and primary antibodies detected with anti-antibody secondary antibodies conjugated to a fluorescent chromophore. Labeled cells were then analyzed by flow cytometry to measure the binding of anti-FZD antibody to cell surface FZD.
Epitope mapping for the anti-FZD antibody 44R24 was performed in a manner similar to that described above in Example 5 for the antibodies 18R8 and 18R5. The ability of 44R24 to bind to a similar epitope as 18R8 was assessed by flow cytometry using a series of amino acid variants of FZD8 previously shown to disrupt binding of 18R8 (see Example 5 and FIGS. 6 and 7).

FZD8 [2] = target: T2, FZD8 (Homo sapiens, UniProt Q9H461); assay: FACS binding to FZD-transfected HEK293 cells; conditions: for EC50: FACS MFI dose-response, full-length FZD in HEK293, 20 μg/ml 4-fold dilutions; for binding to cell-surface FZD8 by flow cytometry (in words): transfected HEK293 cells
T2 construct: plasmid DNA expressing full-length FZD1, 2, 5, 7 or 8; expressed in transfected cells; host or cells: HEK293
Protocol: (§1) To measure antibody binding to FZD by flow cytometry HEK293 cells were co-transfected with FZD expression vectors and the transfection marker GFP. Twenty-four to forty-eight hours post-transfection, cells were collected in suspension and incubated on ice with anti-FZD antibodies (10 μg/ml unless otherwise indicated) or control IgG to detect background antibody binding. The cells were washed and primary antibodies detected with Fc domain-specific secondary antibodies conjugated to a fluorescent chromophore (e.g. phycoerythrin conjugated anti-human IgG). Labeled cells were then analyzed by flow cytometry to identify anti-FZD antibodies that specifically recognize cell surface expression of FZD protein. Monoclonal antibodies 18R5 and 18R8 recognized FZD on transfected cells. As shown in FIG. 1 and FIG. 2, both 18R8 and 18R5 bind to multiple FZD including FZD1, FZD2, FZD5, FZD7, and FZD8. To examine the relative ability of 18R8 and 18R5 to bind to each FZD protein, titration analysis was conducted wherein the amount of antibody in the binding reaction was varied (FIG. 2).
(§2) HEK293 cells were co-transfected with a plasmid DNA expressing full-length FZD1, 2, 5, 7 or 8 along with another plasmid expressing the reporter gene GFP used as a transfection marker. Fugene 6 (Roche) was used as transfection reagent according to the manufacturer directions. Transfected cells were incubated twenty-four to forty-eight hours at 37° C. and 5% CO2. The anti-FZD mAbs were then diluted in a final volume of 50 μl starting with a concentration of 20 μg/ml and serially diluted 4-fold for a total of 8 dilutions. Each FZD/GFP 293 transiently tranfectant pool was collected in suspension and 100,000 transfected cells were incubated on ice 30-60 minutes with the diluted anti-FZD mAb to be tested. The cells were washed and bound anti-Fzd antibodies were detected with a secondary anti-human antibody conjugated to a fluorescent chromophore. Labeled cells were then detected and counted by FACS. The FACS data generated were expressed in Mean Fluorescence Intensity (MFI) units. GraphPad Prism software was used to graph and analyze the data. MFIs were plotted as a function of Ab concentration to establish dose-response curves. A non-linear regression was applied to the numbers to fit the curve and calculate EC50s.

FZD2 = target: T3, FZD2 (Homo sapiens, UniProt Q14332); assay: FACS binding to FZD-transfected HEK293 cells; conditions: for binding to cell-surface FZD2 by flow cytometry (in words): transfected HEK293 cells
T3 construct: plasmid DNA expressing full-length FZD1, 2, 5, 7 or 8; expressed in transfected cells; host or cells: HEK293
Protocol: as §1, §2

FZD5 = target: T4, FZD5 (Homo sapiens, UniProt Q13467); assay: FACS binding to FZD-transfected HEK293 cells; conditions: for EC50: FACS MFI dose-response, full-length FZD in HEK293, 20 μg/ml 4-fold dilutions; for binding to cell-surface FZD5 by flow cytometry (in words): transfected HEK293 cells
T4 construct: plasmid DNA expressing full-length FZD1, 2, 5, 7 or 8; expressed in transfected cells; host or cells: HEK293
Protocol: as §1, §2

FZD7 = target: T5, FZD7 (Homo sapiens, UniProt O75084); assay: FACS binding to FZD-transfected HEK293 cells; conditions: transfected HEK293 cells
T5 construct: plasmid DNA expressing full-length FZD1, 2, 5, 7 or 8; expressed in transfected cells; host or cells: HEK293
Protocol: as §1, §2

FZD1 = target: T6, FZD1 (Homo sapiens, UniProt Q9UP38); assay: FACS binding to FZD-transfected HEK293 cells; conditions: transfected HEK293 cells
T6 construct: plasmid DNA expressing full-length FZD1, 2, 5, 7 or 8; expressed in transfected cells; host or cells: HEK293
Protocol: as §1, §2

T4 sequence (Q13467 27-585): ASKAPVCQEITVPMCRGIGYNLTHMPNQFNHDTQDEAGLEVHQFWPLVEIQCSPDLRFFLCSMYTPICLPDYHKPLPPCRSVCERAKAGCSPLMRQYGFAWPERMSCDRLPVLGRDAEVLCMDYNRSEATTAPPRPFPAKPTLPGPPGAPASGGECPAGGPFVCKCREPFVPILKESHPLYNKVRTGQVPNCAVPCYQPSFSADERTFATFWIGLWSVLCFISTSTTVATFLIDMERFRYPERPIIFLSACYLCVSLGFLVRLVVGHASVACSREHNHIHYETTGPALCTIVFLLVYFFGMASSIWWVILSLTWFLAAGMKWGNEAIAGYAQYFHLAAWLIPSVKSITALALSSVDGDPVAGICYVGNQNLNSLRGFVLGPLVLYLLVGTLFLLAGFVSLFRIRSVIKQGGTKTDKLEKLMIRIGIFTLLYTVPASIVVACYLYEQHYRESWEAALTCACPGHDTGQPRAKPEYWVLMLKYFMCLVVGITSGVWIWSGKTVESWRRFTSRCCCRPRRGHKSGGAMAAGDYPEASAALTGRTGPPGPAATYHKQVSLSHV
T3 sequence (Q14332 24-565): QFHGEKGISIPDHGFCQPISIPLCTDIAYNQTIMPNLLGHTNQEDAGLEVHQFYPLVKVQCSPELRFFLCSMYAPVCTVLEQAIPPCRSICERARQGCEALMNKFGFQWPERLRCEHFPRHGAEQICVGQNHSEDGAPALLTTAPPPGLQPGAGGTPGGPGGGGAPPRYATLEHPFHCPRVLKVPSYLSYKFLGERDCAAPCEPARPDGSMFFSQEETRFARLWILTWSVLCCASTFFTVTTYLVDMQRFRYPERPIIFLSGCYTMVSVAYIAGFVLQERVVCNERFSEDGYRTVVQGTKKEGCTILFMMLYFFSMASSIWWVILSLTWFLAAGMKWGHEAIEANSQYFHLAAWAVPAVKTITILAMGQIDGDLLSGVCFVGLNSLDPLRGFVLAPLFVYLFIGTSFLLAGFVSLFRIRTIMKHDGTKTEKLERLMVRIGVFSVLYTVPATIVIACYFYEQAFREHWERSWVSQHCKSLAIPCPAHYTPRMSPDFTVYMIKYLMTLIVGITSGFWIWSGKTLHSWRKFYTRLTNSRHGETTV
T6 sequence (Q9UP38 70-647): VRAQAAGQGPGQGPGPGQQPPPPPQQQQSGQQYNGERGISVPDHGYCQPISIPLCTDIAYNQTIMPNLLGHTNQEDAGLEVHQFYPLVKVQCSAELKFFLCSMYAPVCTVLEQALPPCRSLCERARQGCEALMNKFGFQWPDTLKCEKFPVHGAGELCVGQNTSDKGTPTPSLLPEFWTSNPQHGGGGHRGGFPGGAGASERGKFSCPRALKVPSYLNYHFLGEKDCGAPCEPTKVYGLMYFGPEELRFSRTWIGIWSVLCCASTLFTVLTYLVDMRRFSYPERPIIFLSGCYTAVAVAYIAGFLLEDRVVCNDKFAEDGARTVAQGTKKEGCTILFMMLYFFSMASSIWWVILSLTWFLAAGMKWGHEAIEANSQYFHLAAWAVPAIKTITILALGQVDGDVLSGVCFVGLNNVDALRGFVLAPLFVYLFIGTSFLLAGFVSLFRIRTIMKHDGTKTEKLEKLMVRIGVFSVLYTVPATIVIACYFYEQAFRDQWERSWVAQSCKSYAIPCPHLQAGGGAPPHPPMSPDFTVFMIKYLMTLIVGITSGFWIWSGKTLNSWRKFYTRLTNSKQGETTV
T2 sequence (Q9H461 28-694): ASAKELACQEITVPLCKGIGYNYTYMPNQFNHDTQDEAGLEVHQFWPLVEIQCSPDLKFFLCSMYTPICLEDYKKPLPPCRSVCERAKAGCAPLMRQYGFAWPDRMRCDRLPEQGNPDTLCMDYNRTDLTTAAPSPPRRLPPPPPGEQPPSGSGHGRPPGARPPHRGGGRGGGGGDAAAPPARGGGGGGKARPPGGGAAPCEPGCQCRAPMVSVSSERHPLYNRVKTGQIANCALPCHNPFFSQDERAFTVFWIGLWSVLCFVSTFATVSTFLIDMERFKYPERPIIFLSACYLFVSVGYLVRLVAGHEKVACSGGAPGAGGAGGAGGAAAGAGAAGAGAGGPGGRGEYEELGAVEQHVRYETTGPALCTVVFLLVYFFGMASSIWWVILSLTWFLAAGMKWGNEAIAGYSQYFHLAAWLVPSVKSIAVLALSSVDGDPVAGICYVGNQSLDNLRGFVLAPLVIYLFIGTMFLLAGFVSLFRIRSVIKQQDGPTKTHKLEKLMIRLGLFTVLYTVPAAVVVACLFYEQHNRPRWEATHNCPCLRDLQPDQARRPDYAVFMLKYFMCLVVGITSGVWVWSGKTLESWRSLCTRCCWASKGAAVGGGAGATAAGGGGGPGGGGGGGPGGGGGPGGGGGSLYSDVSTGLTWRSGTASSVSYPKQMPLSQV

Molecule	tumor growth relative to the control group (C28 tumor cells)	binding to FZD8 variant (FZD8 [1])	EC50 (FZD8 [2])	binding to cell-surface FZD8 by flow cytometry (in words) (FZD8 [2])	EC50 (nM) Fzd2 (FZD2; FACS MFI dose-response, full-length FZD in HEK293, 20 μg/ml 4-fold dilutions)	binding to cell-surface FZD2 by flow cytometry (in words) (FZD2)	EC50 (FZD5)	binding to cell-surface FZD5 by flow cytometry (in words) (FZD5)	binding to cell-surface FZD7 by flow cytometry (in words) (FZD7)	binding to cell-surface FZD1 by flow cytometry (in words) (FZD1)
B1	reduced growth relative to the control group	reduced staining	1.09 nM	good affinity	no binding	does not bind	1.89 nM	good affinity	does not bind	does not bind
B2	reduced growth relative to the control group	reduced staining	12 nM	greater binding potency and bind	–	bind and greater binding potency and High affinity binding	1.1 nM	bind and greater binding potency and High affinity binding	bind and greater binding potency and High affinity binding	bind and greater binding potency and High affinity binding
B3	had no effect	similarly lost	–	bind	–	bind	–	bind	bind	bind
